Source: a protein production outcome set (Wang et al. 2014)

Assay: label from the status in PepcDB records
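Further: failed if final PepcDB status was selected cloned or expressed and not failed if soluble or beyond.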

Protein production, failed:
MKAQYFFWILFLIGFYWMIYLYQDFLMDALIAGLLCVGFFQVKVFLDKRFFNVVSSFLCVLILASVLIVPLYFIVYKSSNIIFEINFEKFSALIKWLKGIITENLSHFPTIHDGASKFLENFSAASITGYLLKISSYVGRYSLKLITDALFILGLLFFFFYYGERFYRYFLGVLPLGMNQSKKIFEEVAGILRIVLLTSLITVILEGVAFGVMIVWFGHDGWSLGILYGLASLVPAVGGALIWIPIAIYELYHGNVNEAIFIALYSILLISVLIDSVIKPILIVFIKKRIFKTTLKINEMLIFFSMIAGISQFGFWGIIVGPTITAFFIALLRLYENYFIQNEQKACE, MKAYPYIFLLLISSSLAASQEDKLYEAARSALNDNKYSEALIHVKNILKISPEHLASNILIAEILLADGSASAAEASLTKAVSLGANKKQLRLLFAESYIMQGQYNKTLDYLPEQTNDDKLAAKIYVLRGDAHLGLRQLKLSQNDYNTALAFDAKNIDAKLGLAQIAVNYFQFHQAEKLVDEVLSGYIPPIKAWNLKASIQQSLGNNELALNAINQALLIDKNNIQSLIFASTINIELQQFELAEKYADTVLEQVPNEPKAEFIKAMVQVRKNENAGFESAIETVAQVLDHLSEDVLRSNPSYYYLASIILFHQQKHEAARQYIDDYLLIDENNINALTLAATIELVEKKPMQAKTLLSRANFLDPDNPKILSMLGMTYLELRQYEKAHFYLAKVKELKPNLGIADTQLAQSYLATGKPEKAIKHLLTASAAEYDPTVVGLLLVESYIKSGKMNKGISVAKNLAENMPDNANIQHHLGYIYQISGEIEKAKHQFEQALIIEPNHAKSIISLANLDYQKGNADIAIDRLKAALIISANDIDLITALAKFYNRTNNSAASVILLEEPFKLDNQNEELLKNLIVSYVGDKQLMLAIETLNTYLLNQRKTVELYLMLASLQIMNSDVNSAVSAYKSAIKQDGDKGTIYLLIAHAYQRFSKVPEAITAYKKSMAWDGDNDKAIIGLAQLYNAENDTDSAIKLIKSFEVNHQLSAQLVEVLANSYLRINQYKLAEMYYKKRIKLASNDSSVVGLNLIYRATKRTSKAVDLLTTSLNDRPNSLFLNTALAELYIDQSQWLNADKIYQTLVQLYPKQPAILNNASYVALNLSDYPRAEALVKRSLALVDNQPDSLDTLGWVYYHTKEFNKALPLFRKALAINNSNPAVKYHLALTLKALNRDKEAIKLMVDVVNSDYSQKADADVLLKQWLK, MKDAKSFNDLYKASIYTMLGSIYAPSGGVIAAPTTSLPEVEGGKRNWDYRFAWVRDSSIIAEALLEAGSIVEARRIINFLLSLINFSSKPFYYPLYTIEGTIPPPERELRWLSGYKNSKPVRIGNGASSQIQLDIEGFFISALYKYVKMTNDQVFLKDVFSKVKYIGDWISENWSLKDSGIWEDRGSPQHYTHSKIMMWIALDKIGKLANLIGYADIWAKEREKLRNWIFTNCVKNNYFIRYCGNTDDVDSSLLSAPLYGFIEVSDSTFINTLTKIENDLKTDVFVKRYKTDFMGEAKHPFLLTTVWLARVYMRLGKIDSAIEILNKINKVSRELHLVGEHVDVEKGEFTGNFPQIFVHAQLVIAIKELNDTLEHHHHHH, MKDFFKDQFFKALEKNTIFSRADVQGNLIFVSDKLCQISGYSKKELIGKKHSIFKHPDVEECYIEELLKKLSYKKPYQVIFKNIDKLGKTFYLETLLIPILDKNNELIEIVAFSHDVSNSFKLNEELALNHAKLRELSINLENTVKNHQQEFIQLGKKFEKKMQIALEKNEKDIKIAYEEILKSSLEQMISDIAHQWRQPLNELGIAMFQMKQNLKDEKGFAEIYSQSKDMIKNMSETIDVFRTLFNKGVEQCVFIKETLNKALEIAFETIEKNHVNINIVSKSDYEVLAYENGLIRVFLNLILNSIEAFKNKKRKIITINFSKFGKNYLKITIKDNAGGIDKENLDKIFQPYFTTKHPSQGIGVGLYISRQIIESFQGKIKVKNGKDGACFEIFLKLKERVE, MKDISLKDKITQGINDLFYIWKREFRTTFRDQGVLIFFVLVPLVYPLIYSFIYTNEVVREVPAVVVDDSRSSLSREYLRKVDATPDIQIVAYCADMEEAKQMLKDRLAYGIIYIPKDFSSDIAQGKQTQVSIYCDMSGLLYYKSMLLANTAVSLDMNENIKIARSGNTTDRQDEITAYPIEYEDVAMFNPTNGFAAFLIPAVLILIIQQTLLLGIGLSAGTARENNRFKDLVPINRHYNGTLRIVLGKGLSYFMVYALVSVYVLCAVPRMFSLNQIGQPGTLALFILPYLMACIFFAMTASIAIRNRETCMLIFVFTSVPLLFISGISWPGAAIPPFWKYFSYIFPSTFGINGFVRINNMGATLSEIPFEYKALWIQTGFYFLTTCWVYRWQIIKSRKHVIDKYKEMKNKGKEFFS, MKDLFSTDSQRYQQARPTYPPSLLQSLLQYIPERELAWDCGAGSGQLTHMLASYFDQVVGTDISQTQLSHAEYYDNISYQLQPAENTTFPDHCFDLITVAQAIHWFDFEAFYAEVRRTIKPSGILAVVGYGLIHVDDLEINAKVQHLYHQTLNGFWDAERHYVDELYQTIPFPFDEIEMPAFQIEAQWTLQQLLQYLNTWSAVQHYILEKNLDPVQQLLSKGRDLQDQVSIQFPVLLRVGRCS, MKDLIIVGAGGFGREVAWLVEDINNNNREWNLLGFIDENEQNHGNELNGYKVLGGFDYLNNKKNIYYVCAIGNAKVRKEIVEKKCSKYNIKPANLIHPSVIMSKKYNKMGEGCIICASNIITVNVTLGDHIIVNLDCTIGHDVVINDYVTIYPSVNVSGNCNIGECVELGTGTQVIQGNNIGDRTIVGAGSVVIRNIEGDKVAVGVPTKVIK, MKDLSSIVAKFNTQGTITEIKPLGAGLINDTYKVNTQEADAPDYVLQRINHAIFQNVEMLQSNIAAVTGHIRKKLTEAGEADIDRKVLSFLATEEGKTYWFDGESYWRVMVFIPRAKTYETVNPEYSNYAGEAFGNFQAMLADIPETLGETIPDFHNMEFRLKQLRDAVAANAAGRVAEVQYYLDEIEKRADEMCKAERLFREGKLPKRVCHCDTKVNNMMFDEDGKVLCVIDLDTVMPSFIFSDYGDFLRTGANTGDEDDKDLNRVNFNMEIFKAFTKGYLKGAKSFLTPIEIENLPYAAALFPYMQCVRFLADYINGDTYYKIKYPEHNLVRTKAQFKLLQSVEEHTPEMVAFINECLVNGLEHHHHHH, MKDLTQGSIPKHLISMALPMMIGMLIQTLYFIVDLYFVGKLGSAALAGLSLAGNAMFLIFALTQILNVSTAALISHAVGAKDQQDANLTFNQSMMLSTVVGIIVCIIGYFGAQDYLNLISQDSETVMMGLTYLHWFIPCMALQFIMVSISSALRGTGIVKPTMVIQTLSILLNIILSPILITGWGSGYAMGIAGAGFASSLSVIFAVVLLCYYFITTDKYVSVDFSLWHINVPRIKKLLAIGLPAGGEFFLMFVYMGAIYWLIKPFGAEAQAAFGLGSRVMQALFLPAMAIAFAAPAIAGQNFGAQNYQRVRDTFRWTAIMTCSLMAIILLICLSQAEWMLTHFSDDREVILISVAFLQMICWNFVPAGLVFTCSGMFQALGNTMPALLSTATRLITFILPALWLSKQSDFQIEQLWYVSVATVCLQSSVSFYFLKREFKKRLPNDNLSNECSDELNKNKLIT, MKDMKMQSSPETMMTRIPTPDPHSTGVREDAMDSVCKPWKLYENPYYCSSQSQQHQHQRKAFIWDLNFIKVFMESELGKAQDEIKELKAELDYERKARRRAELMIKKLAKDVEEERMAREAEEMQNKRLFKELSSEKSEMVRMKRDLEEERQMHRLAEVLREERVQMKLMDARLFLEEKLSELEEANRQGERERNRMMKPKILERACSSPARRRCENPQIKRGINPFPRVMRAIRSKSEKWGSKLECQKVQLKILLRQKTTPRCTPLLSSPPP, MKDMQTKIVMIGILLSTGIMLRAQDNGGCEDCPAFNAGGKVEVRGVKERIIGDLSQPVAVRVRTLIQQMTLAEKVAQLVSESDSIPRLNLPAYNYWNECLHGVARAGEVTVFPQAINLASTWDTVLVKRVASAISTEARLKYLEIGKGLTYWSPTINMARDPRWGRNEETYGEDPHLTSRLGVAFVKGLQGDHPTYLKTVATIKHFVANNEENNRFSSSSQIPTKQLYEYYFPAYEACVKEANAQSVMTAYNAFNGVPPSGSHWLLDDVLRKEWGFDGFVVSDCGAIGVMNWQHRVVNSLEEAAALGVNSGCDLECGTTYKEKLVQAVEQGLISEAAIDRALTRVLTARFKLGEFDPMELVPYNHYDKKLLAGKKFAELAYEAAVKSVVLLKNDALLPLNKEKIKSVAVVGPFADYNYLGGYSGQPPYSVSLLKGVKELIGKKGKVTYLNGMGTSADSIAQVVKGADIVLVALGSDEKMARENHDMPSIYLPEEQEKFLKKIYQVNPRIVLVFHTGNPLTSEWADTHILAIMQAWYPGQEAGRALANLLFGNENPSGKLPMTIYKTEEQLPDILDFDMWKGRTYRYMKGEPLYGFGHGLSYTSFEFDNIQGNDTLQPDAILQCSVELSNSGQLAGEEVVQVYVSRENTPVYTYPLKKLVAFKKVKLASGEKKKVDFTIAPRELSVWEDGKWRMLSGKYTLFIGSGQPGLAKGITKGFEVKIR, MKDREIFAGLSTTVPFVLRLDGRSFHRFSKDRYKKPYDKVFSDAMVKTARALVTDSGLSPSFAYTFSDEISLYVPAPVFDCRVEKLASVSAAFAASAFTLYAGASEPLAFDARVIPIEEGLFPAYLSWRQAEAWRNHMNGYAQKILQDEGVSPTNAQKQLDGMNAAALHEFAFSRGVNLALTPAWERRGICIYRDVVMRDGYNPIKDEKVSVERTIAVIDEDVPLFKSPEGTAWVLSKIRLEHHHHHH, MKDRLINFFGSEWFGMAIATLAVAQTFFLASRYMENITLKYTGEIFFYLGIIIFLVIFILWTIRGLTIHDKKWSHWNNLTRLSFIALVPIILFVINHITIELYGINELMARLSLYNYFFSYFLALILGVLLGYRIYTKEINRNEINYAIIIPPLSIGTSIFLATPLIGYYHGTIAESIYFLVLMGLGIFFFLYIFIGSVALSGHVSNKSGSSLPTAMLPVGVSSLIIINLISINSFGAVIDHLPFSIYTVEFVSILLWGFEVWNFLVMMIIVFRKETFGYLSVWAYGFPLGLFATSTIKLEEVTKIVILGNIFIFIWVALVLLWFYGILNTYVFIRRGILGSHPDK, MKDSQEVTHFSAARSSKWTQHDTYWLLSLFGTAVGAGILFLPINIGLGGFWPLVLMAVLAFPMTYLSHRGLARFVLSSRRPNADFTDVVEEHFGQNAGRLISLLYFLSIFPILLIYGVGLTNTVDSFLVNQADMVSPPRALLSGALVFGLIAIMLSGEKIMLRAFAIMVYPLAAILALLSLYLIPYWSMPSFDFPQTSDFLHTVWLAVPVVVFSFSHAAAISSFANIQRRHYGEQADQKSEQILRHTSVVLILFVLLFVFSCVLALSPQALQEAKAQNISVLTYLANVTDNPFIATLGPLVAFIAITSSFLGHFLGARESLSGLLTKNLGVSLRLAERLTIGFLFVTIWIAAILNPSILGMMEALSGPVIAMILFIMPMIAVFKVPALREHQKRFSTFFVLLVGLLAVSALLYSLLR, MKDVIVIGAGPSGSFAAYRLAKAGFTVDILEEHREVGKPVECTGLVSQRVLKYVRTKSIAGTVRGANIFFPNGKSVHIEKDDPTIVLFRDAFDKDVAAMAIGAGSGIRINARALSVTEHDDHVTVRYRENGSIKEEDARIVIGADGINSVVRRDVYGMRQKHVVSTLQYDMASGIEDEDSVNVYLGSQYTHGFFGWAVPGGDIVRVGTGSYKASARPYMDNLSRRFGDNRTLGITGAGIPIRMAERLSSRRTVLVGDAGGIVKPLSGGGIYTGIFSSDVAANYVVEALESDSSEASLRKYDREIRNTIGKELKKDAMIQRIYSRISDRSFNRIYSMISNEKIIDVINRSGDIDYPSTVIIKVLLRNPGILYSMWKLEHHHHHH, MKEDIVSGTVKRVERHGIIVEVVAGKLDALIPRDQMIPRENFRSGDRIRALFLRVEEIGNTGRKQVILSRTSGDFLVKLYANEVPLEHHHHHH
